# B1: JS5-10 (antibody, human IgG1, kappa, L234A L235A, V domains shown)
# VH: EVQLLESGGGLVQPGGSLRLSCAASGFTFSSYAMSWVRQAPGKGLEWVSAIVGSGGSTYYADSVKGRFIISRDNSKNTLYLQMNSLRAEDTAVYYCAKSLIYGHYDILTGAYYFDYWGQGTLVTVSS
# VL: DIQMTQSPSSVSASVGDRVTIPCRASQGIGNWLAWYQQKPGKAPKLLIYAASSLQSGVPSRFSGSGSGTDFTLTISSLQPEDFATYYCQQANSFPPFGQGTRLEIKR
# Target: SARS-CoV-2的野生型RBD蛋白(货号SPD-C82E8，ACRO Biosystems) (SARS-CoV-2, UniProt P0DTC2 319-537)
binder,measurement,value
B1,Kd,2.04 nM
same,koff,0.000215 s⁻¹
same,kon,106000 M⁻¹ s⁻¹

# Reference: patent publication CN116178530A (SHANGHAI JUNSHI BIOSCIENCES CO LTD; JUNMENG BIOSCIENCES CO …, dated 2023)
